Reference: US20240067748A1 (NONA BIOSCIENCES SUZHOU, published 2024)
Substitutions are numbered along the chain they refer to.

T1: human TROP2 protein (Sino Biological, #10428-H08H) (human, UniProt P09758 27-274)
T1 construct: bought protein; also called human Trop2 protein antigen (His tag); not shown: His tag
T1 sequence (looked up): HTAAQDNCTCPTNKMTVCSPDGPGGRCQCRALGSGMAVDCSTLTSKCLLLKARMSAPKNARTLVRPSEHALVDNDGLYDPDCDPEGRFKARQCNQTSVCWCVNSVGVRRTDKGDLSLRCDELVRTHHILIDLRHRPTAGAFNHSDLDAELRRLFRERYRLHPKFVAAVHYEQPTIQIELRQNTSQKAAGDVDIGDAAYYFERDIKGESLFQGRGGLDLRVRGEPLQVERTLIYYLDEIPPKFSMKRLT

T2: human Trop2 on cells (human, UniProt P09758 27-323)
T2 sequence (looked up): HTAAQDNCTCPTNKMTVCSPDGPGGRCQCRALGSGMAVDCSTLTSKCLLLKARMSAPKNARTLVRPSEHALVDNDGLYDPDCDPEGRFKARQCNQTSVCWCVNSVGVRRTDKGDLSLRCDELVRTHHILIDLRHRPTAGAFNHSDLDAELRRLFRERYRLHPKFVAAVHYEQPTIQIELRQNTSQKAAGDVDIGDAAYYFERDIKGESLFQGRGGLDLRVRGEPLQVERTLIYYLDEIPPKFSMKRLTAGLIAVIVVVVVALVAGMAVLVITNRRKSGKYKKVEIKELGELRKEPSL

T3: monkey Trop2 on CHO-K1 cells (monkey, UniProt A0A2K5UE71 27-323)
T3 construct: also called CHO-K1/monkey Trop2
T3 sequence: T2 sequence (looked up) with M36V, K46E, S67N, I204V, M266V, T272S

T4: monkey Trop2 protein (Sino Biological, #90893-C08H) (monkey, UniProt A0A2K5UE71 27-274)
T4 construct: bought protein; also called monkey Trop2 protein antigen (His tag)
T4 sequence: T1 sequence (looked up) with M36V, K46E, S67N, I204V

B1: PR001142 (antibody, human IgG1, kappa, V domains shown)
VH: QVQLQESGPGLVKPSGTLSLTCAVSGDSISSNNWWSWVRQPPGKGLEWIGEIYPGGNPNYNPSLKSRVTISVDKSKNQFSLKLNSVTAADTAVYYCARGSGVISYFDYWGQGTLVTVSS
VL: DIQMTQSPSTLSASVGDRVTITCRASQSIGHWLAWYQQKPGKAPKLLIYKASSLESGVPSRFRGSGSGTEFTLTISSLQPDDFATYYCQQYSSYSPITFGQGSRLEIKR
notes: fully human IgG1/kappa; also called antibody No. (9)
B2: PR001165 (antibody, human IgG1, kappa, V domains shown)
VH: QVQLVESGGGVVQPGRSLRLSCEASGFTFSHYGMHWVRQAPGKGLEWVAVIWYDGIKTYYVESVKGRFTISRDNSKNTLNLQMNRLRAEDTAVYYCARDGGFGESNYYGLDVWGQGTTVTVSS
VL: DIQLTQSPSFLSASVGDRVTITCRASQGISSYLGWYQQKPGKAPKLLIYIASTLQSGVPSRFSGSGSGTEFTLTISSLQPEDFATYYCQQLNSYPYTFGQGTKLEIKR
notes: fully human IgG1/kappa; also called antibody No. (26)
B3: comparative example 2 antibody Tab (hRS7) (antibody, human IgG1, kappa, V domains shown)
VH: QVQLQQSGSELKKPGASVKVSCKASGYTFTNYGMNWVKQAPGQGLKWMGWINTYTGEPTYTDDFKGRFAFSLDTSVSTAYLQISSLKADDTAVYFCARGGFGSSYWYFDVWGQGSLVTVSS
VL: DIQLTQSPSSLSASVGDRVSITCKASQDVSIAVAWYQQKPGKAPKLLIYSASYRYTGVPDRFSGSGSGTDFTLTISSLQPEDFAVYYCQQHYITPLTFGAGTKVEIKR
notes: prepared on the basis of sacituzumab govitecan (ChemPartner, #T07-001); naked antibody
B4: PR001166 (antibody, human IgG1, kappa, V domains shown)
VH: QVQLQESGPGLVKPSETLSLTCAVSGYSISSGYFWAWIRQPPGKGLEWIGSIYHSGRTHYNPSLKSRVIISLDTSKNQFSLKLRSVTAADSAVYYCAREGYASGSYYWGQGTLVTVSS
VL: EIVMTQSPATLSVSPGERATLSCRSSQSVNNYLAWFQQKPGQAPRLLIYDSSTRATGIPARFSGSGSGTEFTLTISSLQSEDFAFYFCQQYENWPLTFGGGTKVEIKR
notes: fully human IgG1/kappa; also called antibody No. (27)

target: T1, human TROP2 protein (Sino Biological, …); assay: BLI epitope binning (Octet), biotinylated human Trop2 on SA sensor; row = primary antibody; competitor (secondary antibody, column): PR001165
Experimental: The biotinylated mixture after the incubation was washed three times with PBS and a Zeba centrifugal desalting column (Thermo Fisher, #89882) to remove excess biotin. The biotinylated Trop2 protein was captured by an SA sensor (Pall ForteBio, #18-5019) with the loading baseline set at 0.3 nm. The sensor was immersed in a well of assay buffer containing 50 nM primary antibody for 300 s. […] The binding assay was performed by comparing the binding of the secondary antibody to Trop2 in the presence of the primary antibody to the blocking of the primary antibody itself.

**Q.** B1 was tested. Which “Inhibition rate (%)” value did it give?
**A.** 99.2%

**Q.** With B2 as the binder, how does the “Inhibition rate (%)” value read?
**A.** 97.7%

**Q.** B3 was tested. Which “Inhibition rate (%)” value did it give?
**A.** 92%

**Q.** Which “Inhibition rate (%)” value does the source give for B4 here?
**A.** 18.5%

target: T2, human Trop2 on cells; assay: cell-based or functional assay

**Q.** With B1 as the binder, how does the “ADCC (donor 1152#) EC50(nM), BxPC-3 + PBMC, LDH release” value (“ADCC (donor 1152#) EC50(nM)” below) read?
**A.** 0.0279 nM

**Q.** And the “ADCC (donor 1152#) Maximum cell killing %” value?
**A.** 41.6%

**Q.** What about the “ADCC (donor 1152#) Minimum cell killing %” value of the same binder?
**A.** 4.47%

**Q.** What about the “ADCC (donor 2153#) EC50(nM), BxPC-3 + PBMC, LDH release” value (from here on “ADCC (donor 2153#) EC50(nM)”) of the same binder?
**A.** 0.0547 nM

**Q.** What about the “ADCC (donor 2153#) Maximum cell killing %” value of the same binder?
**A.** 58.8%

**Q.** And the “ADCC (donor 2153#) Minimum cell killing %” value?
**A.** 9.28%

**Q.** For B2, which “ADCC (donor 1152#) EC50(nM)” value is on record?
**A.** 0.0324 nM

**Q.** What about the “ADCC (donor 1152#) Maximum cell killing %” value of the same binder?
**A.** 39%

**Q.** And the “ADCC (donor 1152#) Minimum cell killing %” value?
**A.** 5.79%

**Q.** What about the “ADCC (donor 2153#) EC50(nM)” value of the same binder?
**A.** 0.0616 nM

**Q.** What about the “ADCC (donor 2153#) Maximum cell killing %” value of the same binder?
**A.** 70.8%

**Q.** What about the “ADCC (donor 2153#) Minimum cell killing %” value of the same binder?
**A.** 14%

**Q.** For B3, which “ADCC (donor 1152#) EC50(nM)” value is on record?
**A.** 0.0391 nM

**Q.** What about the “ADCC (donor 1152#) Maximum cell killing %” value of the same binder?
**A.** 42.1%

**Q.** What about the “ADCC (donor 1152#) Minimum cell killing %” value of the same binder?
**A.** 4.32%

**Q.** And the “ADCC (donor 2153#) EC50(nM)” value?
**A.** 0.08 nM

**Q.** What about the “ADCC (donor 2153#) Maximum cell killing %” value of the same binder?
**A.** 62.6%

**Q.** What about the “ADCC (donor 2153#) Minimum cell killing %” value of the same binder?
**A.** 10.2%

**Q.** Which “ADCC (donor 1152#) EC50(nM)” value does the source give for B4 here?
**A.** 0.02 nM

**Q.** And the “ADCC (donor 1152#) Maximum cell killing %” value?
**A.** 36.5%

**Q.** What about the “ADCC (donor 1152#) Minimum cell killing %” value of the same binder?
**A.** 3.25%

**Q.** What about the “ADCC (donor 2153#) EC50(nM)” value of the same binder?
**A.** 0.0347 nM

**Q.** What about the “ADCC (donor 2153#) Maximum cell killing %” value of the same binder?
**A.** 69.1%

**Q.** What about the “ADCC (donor 2153#) Minimum cell killing %” value of the same binder?
**A.** 11.9%

target: T2, human Trop2 on cells; assay: flow cytometry on BxPC-3 tumor cells (second panel of the table)
Experimental: BxPC-3 tumor cells (the Cell Bank of the Chinese Academy of Sciences, #TCHu 12) were digested with 3 mL of TrypLE, and the digestion was stopped with 7 mL of the corresponding medium. […] The cell solution was centrifuged, and the cells were washed once with PBS+[…] buffer. […] The cells were washed once with PBS+0.50% BSA. The cells were incubated at 4° C. for 1 h in the dark with 100 μL of Alexa Fluor 488 goat anti-human IgG (Life technologies, #A-11013) diluted at 1:1000, and washed twice with PBS+0.50% BSA. The cells were resuspended in 200 μL of PBS+0.50% BSA. The suspension was centrifuged at 4° C. for 5 min at 2000 rpm and tested using a FACS verse flow cytometer or NovoCyte flow cytometer (ACEA Biosciences). All procedures were performed on ice.

**Q.** With B2 as the binder, how does the EC50 read?
**A.** 1.71 nM

**Q.** Which EC50 does the source give for B3 here?
**A.** 2.67 nM

target: T3, monkey Trop2 on CHO-K1 cells; assay: flow cytometry on CHO-K1/monkey Trop2 cells (second run)
Experimental: CHO-K1/monkey Trop2 cells (Chempartner, Shanghai, China) and CHO-K1 blast cells were each digested with 3 mL of TrypLE, and the digestion was stopped with 7 mL of the corresponding medium. […] The cell solution was centrifuged, and the cells were washed once with PBS+0.5% BSA. […] The cells were washed once with PBS+0.5% BSA. The cells were incubated at 4° C. for 1 h in the dark with 100 μL of Alexa Fluor 488 goat anti-human IgG (Life technologies, #A-11013) diluted at 1:1000, and washed twice with PBS+0.5% BSA. The cells were resuspended in 200 μL of PBS+0.5% BSA. The suspension was centrifuged at 4° C. for 5 min at 2000 rpm and tested using a FACS verse flow cytometer or NovoCyte flow cytometer (ACEA Biosciences). All procedures were performed on ice.

**Q.** How did the EC50 turn out when B2 was run?
**A.** 1.8 nM

**Q.** With B3 as the binder, how does the EC50 read?
**A.** 1.3 nM

target: T4, monkey Trop2 protein (Sino Biological, …); assay: SPR, Biacore T200, antigen immobilised on CM5 chip
Experimental: (§1) HBS-EP+ (10 mM HEPES, 150 mM NaCl, 3 mM EDTA, and 0.05% P20, pH 7.4, GE Healthcare, BR-1001-88) was used as a running buffer throughout the test. […] Data were analyzed using Biacore T200 (GE Healthcare, T200 model, #BIAC-B20-03) Evaluation 3.1 software.

**Q.** With B1 as the binder, how does the Kd read?
**A.** 0.374 nM

**Q.** What about the koff of the same binder?
**A.** 0.000179 s⁻¹

**Q.** And the kon?
**A.** 479000 M⁻¹ s⁻¹

**Q.** How did the Kd turn out when B2 was run?
**A.** 0.491 nM

**Q.** What about the koff of the same binder?
**A.** 0.000125 s⁻¹

**Q.** What about the kon of the same binder?
**A.** 255000 M⁻¹ s⁻¹

**Q.** With B3 as the binder, how does the Kd read?
**A.** 0.619 nM

**Q.** With B4 as the binder, how does the Kd read?
**A.** 0.0856 nM

**Q.** And the koff?
**A.** 0.000137 s⁻¹

**Q.** And the kon?
**A.** 1.59e+06 M⁻¹ s⁻¹

target: T1, human TROP2 protein (Sino Biological, …); assay: SPR, Biacore T200, antigen immobilised on CM5 chip
Experimental: as §1

**Q.** Which results are given for B1?
**A.** Kd: 0.53 nM; koff: 0.000252 s⁻¹; kon: 475000 M⁻¹ s⁻¹

**Q.** How did the Kd turn out when B2 was run?
**A.** 0.495 nM

**Q.** And the koff?
**A.** 0.000152 s⁻¹

**Q.** What about the kon of the same binder?
**A.** 307000 M⁻¹ s⁻¹

**Q.** Which Kd does the source give for B3 here?
**A.** 0.601 nM

**Q.** B4 was tested. Which Kd did it give?
**A.** 0.0279 nM

**Q.** What about the koff of the same binder?
**A.** 5.78e-05 s⁻¹

**Q.** What about the kon of the same binder?
**A.** 2.07e+06 M⁻¹ s⁻¹
